Data: the supplement of paper PMC9112550, “Optimization of the antimicrobial peptide Bac7 by deep mutational scanning” (BMC Biology, 2022)
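Note: peptides expressed intracellularly from a pBAD plasmid library in pooled LB shake-flask culture, induced with 0.3% L-arabinose, DNA abundance read by NGS, three biological replicates, DESeq2 with apeglm shrinkage.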

Each sequence was assayed on Escherichia coli TOP10 (assay: shrunken log2 fold change of peptide-encoding DNA abundance (4.5 h post-induction vs induction); higher = less antimicrobial activity (less host growth inhibition)). Details: time post-induction: 4.5 h; library: site-saturation at positions 5, 18, 19, 20.
In the case of RRIRYRPPRLPRPRPRPCNMPRP, the “shrunken log2 fold change” value is reported as -0.873.
With RRIRNRPPRLPRPRPRPCDYPRP the “shrunken log2 fold change” value was -0.00992.
RRIRCRPPRLPRPRPRPRPIPRP was tested, and the “shrunken log2 fold change” value was 0.266.
RRIRGRPPRLPRPRPRPYFNPRP was tested, and the “shrunken log2 fold change” value was -0.439.
In the case of RRIRLRPPRLPRPRPRPPSYPRP, the “shrunken log2 fold change” value is reported as 0.119.
RRIRSRPPRLPRPRPRPWFPPRP was tested, and the “shrunken log2 fold change” value was -0.331.
RRIRHRPPRLPRPRPRPQWYPRP was tested, and the “shrunken log2 fold change” value was -0.0605.
In the case of RRIRKRPPRLPRPRPRPFGSPRP, the “shrunken log2 fold change” value is reported as -0.00822.
With RRIRARPPRLPRPRPRPDYWPRP the “shrunken log2 fold change” value was 0.139.
For RRIRHRPPRLPRPRPRPTRFPRP, the “shrunken log2 fold change” value was 1.65.
RRIRFRPPRLPRPRPRPAAWPRP was tested, and the “shrunken log2 fold change” value was 0.28.
In the case of RRIRGRPPRLPRPRPRPEYSPRP, the “shrunken log2 fold change” value is reported as 0.445.
In the case of RRIRFRPPRLPRPRPRPDQRPRP, the “shrunken log2 fold change” value is reported as -0.325.
RRIRQRPPRLPRPRPRPESDPRP was tested, and the “shrunken log2 fold change” value was 0.319.
RRIRERPPRLPRPRPRPPSHPRP was tested, and the “shrunken log2 fold change” value was -0.209.
With RRIRMRPPRLPRPRPRPVKTPRP the “shrunken log2 fold change” value was 0.0113.
With RRIRSRPPRLPRPRPRPVDFPRP the “shrunken log2 fold change” value was -0.0272.
RRIRMRPPRLPRPRPRPRPCPRP was tested, and the “shrunken log2 fold change” value was 0.586.
With RRIRDRPPRLPRPRPRPYGKPRP the “shrunken log2 fold change” value was -0.511.
With RRIRQRPPRLPRPRPRPHGPPRP the “shrunken log2 fold change” value was -0.102.
In the case of RRIRQRPPRLPRPRPRPFLRPRP, the “shrunken log2 fold change” value is reported as -0.0193.
RRIRMRPPRLPRPRPRPVNHPRP was tested, and the “shrunken log2 fold change” value was -0.327.
RRIRKRPPRLPRPRPRPPLNPRP was tested, and the “shrunken log2 fold change” value was 0.309.
RRIRERPPRLPRPRPRPVCIPRP was tested, and the “shrunken log2 fold change” value was -0.541.
For RRIRGRPPRLPRPRPRPGSRPRP, the “shrunken log2 fold change” value was 0.565.
RRIRIRPPRLPRPRPRPPWWPRP was tested, and the “shrunken log2 fold change” value was 0.516.
In the case of RRIRYRPPRLPRPRPRPCWDPRP, the “shrunken log2 fold change” value is reported as -0.0738.
In the case of RRIRFRPPRLPRPRPRPMWHPRP, the “shrunken log2 fold change” value is reported as 0.0814.
RRIRIRPPRLPRPRPRPGAMPRP was tested, and the “shrunken log2 fold change” value was 0.046.
RRIRTRPPRLPRPRPRPLFWPRP was tested, and the “shrunken log2 fold change” value was 0.134.
With RRIRIRPPRLPRPRPRPGWCPRP the “shrunken log2 fold change” value was -0.082.
In the case of RRIRGRPPRLPRPRPRPKRSPRP, the “shrunken log2 fold change” value is reported as 0.301.
RRIRDRPPRLPRPRPRPKSQPRP was tested, and the “shrunken log2 fold change” value was 0.231.
RRIRMRPPRLPRPRPRPAWGPRP was tested, and the “shrunken log2 fold change” value was 0.81.
In the case of RRIRSRPPRLPRPRPRPEMCPRP, the “shrunken log2 fold change” value is reported as -0.104.
With RRIRYRPPRLPRPRPRPSDIPRP the “shrunken log2 fold change” value was -0.0657.
In the case of RRIRGRPPRLPRPRPRPAWPPRP, the “shrunken log2 fold change” value is reported as 0.892.
RRIRFRPPRLPRPRPRPLKSPRP was tested, and the “shrunken log2 fold change” value was -0.307.
RRIRFRPPRLPRPRPRPRFKPRP was tested, and the “shrunken log2 fold change” value was -0.281.
RRIRWRPPRLPRPRPRPEHHPRP was tested, and the “shrunken log2 fold change” value was -0.0625.
RRIRNRPPRLPRPRPRPNDCPRP was tested, and the “shrunken log2 fold change” value was 0.0423.
In the case of RRIRARPPRLPRPRPRPGIQPRP, the “shrunken log2 fold change” value is reported as -0.041.
For RRIRARPPRLPRPRPRPYTHPRP, the “shrunken log2 fold change” value was -0.373.
With RRIRRRPPRLPRPRPRPTPGPRP the “shrunken log2 fold change” value was 1.11.
In the case of RRIRVRPPRLPRPRPRPARKPRP, the “shrunken log2 fold change” value is reported as 0.342.
With RRIRVRPPRLPRPRPRPHHSPRP the “shrunken log2 fold change” value was -0.593.
For RRIRMRPPRLPRPRPRPHGDPRP, the “shrunken log2 fold change” value was -0.0284.
With RRIRGRPPRLPRPRPRPRVDPRP the “shrunken log2 fold change” value was 1.57.
With RRIRCRPPRLPRPRPRPQTHPRP the “shrunken log2 fold change” value was 0.0541.
In the case of RRIRVRPPRLPRPRPRPWQFPRP, the “shrunken log2 fold change” value is reported as -0.0175.
For RRIRLRPPRLPRPRPRPNYGPRP, the “shrunken log2 fold change” value was -0.0135.
RRIRLRPPRLPRPRPRPPNKPRP was tested, and the “shrunken log2 fold change” value was -0.123.
With RRIRERPPRLPRPRPRPPLPPRP the “shrunken log2 fold change” value was 0.151.
In the case of RRIRMRPPRLPRPRPRPCTAPRP, the “shrunken log2 fold change” value is reported as 0.191.
In the case of RRIRGRPPRLPRPRPRPCAEPRP, the “shrunken log2 fold change” value is reported as 1.91.
In the case of RRIRRRPPRLPRPRPRPSGHPRP, the “shrunken log2 fold change” value is reported as 0.161.
RRIRFRPPRLPRPRPRPNNWPRP was tested, and the “shrunken log2 fold change” value was -0.369.
In the case of RRIRPRPPRLPRPRPRPWRNPRP, the “shrunken log2 fold change” value is reported as 0.0809.
For RRIRRRPPRLPRPRPRPSKDPRP, the “shrunken log2 fold change” value was 0.0136.
For RRIRKRPPRLPRPRPRPHGMPRP, the “shrunken log2 fold change” value was -0.00215.
RRIRWRPPRLPRPRPRPSFNPRP was tested, and the “shrunken log2 fold change” value was -0.365.
In the case of RRIRLRPPRLPRPRPRPFFDPRP, the “shrunken log2 fold change” value is reported as -0.0987.
With RRIRHRPPRLPRPRPRPTFFPRP the “shrunken log2 fold change” value was 0.0852.
For RRIRTRPPRLPRPRPRPRPQPRP, the “shrunken log2 fold change” value was 0.146.
RRIRIRPPRLPRPRPRPHQKPRP was tested, and the “shrunken log2 fold change” value was -0.0756.
For RRIRLRPPRLPRPRPRPCWDPRP, the “shrunken log2 fold change” value was -0.104.
RRIRYRPPRLPRPRPRPTAIPRP was tested, and the “shrunken log2 fold change” value was -0.774.
In the case of RRIRIRPPRLPRPRPRPRDWPRP, the “shrunken log2 fold change” value is reported as 0.429.
In the case of RRIRNRPPRLPRPRPRPTDIPRP, the “shrunken log2 fold change” value is reported as -0.296.
In the case of RRIRKRPPRLPRPRPRPWLKPRP, the “shrunken log2 fold change” value is reported as 0.0705.
In the case of RRIRSRPPRLPRPRPRPQVYPRP, the “shrunken log2 fold change” value is reported as -0.276.
For RRIRPRPPRLPRPRPRPVCEPRP, the “shrunken log2 fold change” value was 0.227.
With RRIRGRPPRLPRPRPRPGFRPRP the “shrunken log2 fold change” value was 0.399.
In the case of RRIRNRPPRLPRPRPRPADVPRP, the “shrunken log2 fold change” value is reported as -0.289.
RRIRCRPPRLPRPRPRPPESPRP was tested, and the “shrunken log2 fold change” value was 0.347.
